T1: Mcm4 (subunit in the Mcm2–7 double hexamer) (S. cerevisiae, UniProt P30665 1-933)
T1 sequence: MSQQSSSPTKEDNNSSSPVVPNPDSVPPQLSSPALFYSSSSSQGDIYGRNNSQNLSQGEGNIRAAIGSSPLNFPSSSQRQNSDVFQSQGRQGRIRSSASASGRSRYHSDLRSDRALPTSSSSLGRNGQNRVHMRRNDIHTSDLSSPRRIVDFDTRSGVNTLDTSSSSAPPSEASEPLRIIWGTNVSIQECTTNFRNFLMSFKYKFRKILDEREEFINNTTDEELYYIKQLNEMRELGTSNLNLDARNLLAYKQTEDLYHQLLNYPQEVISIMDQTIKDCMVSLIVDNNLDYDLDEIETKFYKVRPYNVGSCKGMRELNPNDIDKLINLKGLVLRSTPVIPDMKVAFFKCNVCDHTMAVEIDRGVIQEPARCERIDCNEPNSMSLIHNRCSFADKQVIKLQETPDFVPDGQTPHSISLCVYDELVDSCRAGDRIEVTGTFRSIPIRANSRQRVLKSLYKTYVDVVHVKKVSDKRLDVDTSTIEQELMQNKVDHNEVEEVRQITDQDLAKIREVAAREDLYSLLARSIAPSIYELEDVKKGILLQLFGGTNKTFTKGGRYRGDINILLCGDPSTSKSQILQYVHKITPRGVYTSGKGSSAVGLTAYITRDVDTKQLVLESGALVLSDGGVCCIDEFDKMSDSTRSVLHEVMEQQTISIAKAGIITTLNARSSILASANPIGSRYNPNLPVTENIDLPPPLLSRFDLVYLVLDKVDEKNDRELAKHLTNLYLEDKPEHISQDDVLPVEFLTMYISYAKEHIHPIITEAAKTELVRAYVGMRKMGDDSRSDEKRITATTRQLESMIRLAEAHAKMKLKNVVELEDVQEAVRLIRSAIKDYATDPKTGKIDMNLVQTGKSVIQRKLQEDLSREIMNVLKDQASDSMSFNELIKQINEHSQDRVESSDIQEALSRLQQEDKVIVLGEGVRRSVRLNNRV

B1: Mcm2 (subunit in the Mcm2–7 double hexamer) (natural protein)
chain: MSDNRRRRREEDDSDSENELPPSSPQQHFRGGMNPVSSPIGSPDMINPEGDDNEVDDVPDIDEVEEQMNEVDLMDDNMYEDYAADHNRDRYDPDQVDDREQQELSLSERRRIDAQLNERDRLLRNVAYIDDEDEEQEGAAQLDEMGLPVQRRRRRRQYEDLENSDDDLLSDMDIDPLREELTLESLSNVKANSYSEWITQPNVSRTIARELKSFLLEYTDETGRSVYGARIRTLGEMNSESLEVNYRHLAESKAILALFLAKCPEEMLKIFDLVAMEATELHYPDYARIHSEIHVRISDFPTIYSLRELRESNLSSLVRVTGVVTRRTGVFPQLKYVKFNCLKCGSILGPFFQDSNEEIRISFCTNCKSKGPFRVNGEKTVYRNYQRVTLQEAPGTVPPGRLPRHREVILLADLVDVSKPGEEVEVTGIYKNNYDGNLNAKNGFPVFATIIEANSIKRREGNTANEGEEGLDVFSWTEEEEREFRKISRDRGIIDKIISSMAPSIYGHRDIKTAVACSLFGGVPKNVNGKHSIRGDINVLLLGDPGTAKSQILKYVEKTAHRAVFATGQGASAVGLTASVRKDPITKEWTLEGGALVLADKGVCLIDEFDKMNDQDRTSIHEAMEQQSISISKAGIVTTLQARCSIIAAANPNGGRYNSTLPLAQNVSLTEPILSRFDILCVVRDLVDEEADERLATFVVDSHVRSHPENDEDREGEELKNNGESAIEQGEDEINEQLNARQRRLQRQRKKEEEISPIPQELLMKYIHYARTKIYPKLHQMDMDKVSRVYADLRRESISTGSFPITVRHLESILRIAESFAKMRLSEFVSSYDLDRAIKVVVDSFVDAQKVSVRRQLRRSFAIYTLGH
B2: Mcm5 (subunit in the Mcm2–7 double hexamer) (natural protein)
chain: MSFDRPEIYSAPVLQGESPNDDDNTEIIKSFKNFILEFRLDSQFIYRDQLRNNILVKNYSLTVNMEHLIGYNEDIYKKLSDEPSDIIPLFETAITQVAKRISILSRAQSANNNDKDPENTSMDTDSLLLNSLPTFQLILNSNANQIPLRDLDSEHVSKIVRLSGIIISTSVLSSRATYLSIMCRNCRHTTSITINNFNSITGNTVSLPRSCLSTIESESSMANESNIGDESTKKNCGPDPYIIIHESSKFIDQQFLKLQEIPELVPVGEMPRNLTMTCDRYLTNKVIPGTRVTIVGIYSIYNSKNGAGSGRSGGGNGGSGVAIRTPYIKILGIQSDVETSSIWNSVTMFTEEEEEEFLQLSRNPKLYEILTNSIAPSIFGNEDIKKAIVCLLMGGSKKILPDGMRLRGDINVLLLGDPGTAKSQLLKFVEKVSPIAVYTSGKGSSAAGLTASVQRDPMTREFYLEGGAMVLADGGVVCIDEFDKMRDEDRVAIHEAMEQQTISIAKAGITTVLNSRTSVLAAANPIYGRYDDLKSPGDNIDFQTTILSRFDMIFIVKDDHNEERDISIANHVINIHTGNANAMQNQQEENGSEISIEKMKRYITYCRLKCAPRLSPQAAEKLSSNFVTIRKQLLINELESTERSSIPITIRQLEAIIRITESLAKLELSPIAQERHVDEAIRLFQASTMDAASQDPIGGLNQASGTSLSEIRRFEQELKRRLPIGWSTSYQTLRREFVDTHRFSQLALDKALYALEKHETIQLRHQGQNIYRSGV

Key:
[1] = molecular target: Mcm2–7 hexamer (minichromosome maintenance proteins 2–7) (S. cerevisiae) (UniProt P29469); experiment: cryo-EM structure
[2] = molecular target: T1, Mcm4 (subunit in the Mcm2–7 double …); experiment: negative stain EM, 3D reconstruction

Molecule | stoichiometry N [1] | binding result [2]
Mcm2–7 hexamer (minichromosome maintenance proteins 2–7) (from UniProt P29469;P24279;P30665;P29496;P53091;P38132) (complex) | 2 | 
B1 |  | binds
B2 |  | binds
